{"source": "paper PMC2188490", "assay_in_all_cases": "kinetic titration of prothrombinase activity", "key": {"[1]": {"target": "factor V/Va (mixture of nonactivated and activated factor V) purified from rabbit plasma (rabbit)"}, "[2]": {"target": "high-affinity factor Xa receptor on cultured rabbit alveolar macrophages (rabbit (endogenous in alveolar macrophages))"}, "[3]": {"target": "factor V/Va (mixture of nonactivated and activated factor V) purified from rabbit plasma (rabbit)", "remark": "listed apart in the source"}}, "note": "Like-named read-outs stand apart in the source and are kept apart here."}
{"substance": "factor Xa (enzyme)", "values": [{"measurement": "Kd", "setting": "[1]", "result": 0.603, "unit": "nM"}, {"measurement": "Kd", "setting": "[2]", "result": 0.211, "unit": "nM"}, {"measurement": "Kd", "setting": "[3]", "result": 0.821, "unit": "nM"}]}
